How the values were obtained:
[1] = target: T1, Nogo66 + sNogoR344-Fc (Rattus norvegicus, UniProt Q99M75, A303T/C287S/C43R/E284G/T53A); assay: ELISA: inhibition of Nogo66 binding to sNogoR344-Fc
T1 construct: amino acid residues 26-344 of rat Nogo receptor-1; made in house
T1 sequence (Q99M75 26-344 C43R/T53A/E284G/C287S/A303T): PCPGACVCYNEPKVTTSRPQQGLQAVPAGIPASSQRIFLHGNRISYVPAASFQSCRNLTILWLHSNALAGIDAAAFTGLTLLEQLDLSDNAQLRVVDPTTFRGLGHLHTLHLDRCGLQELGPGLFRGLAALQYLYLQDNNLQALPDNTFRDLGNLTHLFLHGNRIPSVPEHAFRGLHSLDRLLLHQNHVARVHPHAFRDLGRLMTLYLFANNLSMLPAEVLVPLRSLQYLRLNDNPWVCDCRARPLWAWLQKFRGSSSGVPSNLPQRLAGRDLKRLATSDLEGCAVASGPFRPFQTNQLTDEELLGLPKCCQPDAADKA
Method: (§1) 0.5 μg of a soluble Nogo receptor-1 fusion protein comprising amino acid residues 26-344 of rat Nogo receptor-1 and the hinge and Fc region of the rat IgG1 molecule (sNogoR344-Fc) produced as described below was immobilized on […] of protein-A- or wheatgerm agglutinin-conjugated SPA beads (Amersham Pharmacia Biotech) for 2 hours at 25° C. SPA beads coupled with Fc-sNogoR-1, anti-Nogo receptor-1 mAb and 1 μl ^125I-Nogo66 (Amersham, 2000 Ci/mmol, 1 nM) in […] of the HEPES-buffered incubation medium (10 mM HEPES, pH 7.4, 0.1% bovine serum albumin, 0.1% ovalbumin, 2 mM MgCl2, 2 mM CaCl2 and protease inhibitors) was added to each sample well. After 16 hours, radioactivity was measured in quadruplicate samples using a TopCount® (Packard). IC50 values were calculated from a curve-fit analysis (FIG. 3) (PRISM, GraphPad Software, NJ). In some experiments, we also used AP-ligand conjugates (e.g. AP-Nogo66) and detected binding by monitoring alkaline phosphatase activity. We also assayed the ability of the mAbs to block binding of the ligands MAG-Fc and AP-OM-gp to Nogo receptor-1.
(§2) Monoclonal antibodies 7E11, 5B10, 1H2, 3G5 and 2F7 all inhibited binding of Nogo66, MAG and OM-gp to sNogoR344-Fc. The calculated IC50 for Nogo66 for 7E11 and 1H2 were 400 nM and 60 nM, respectively. The data from ELISAs monitoring mAb-mediated inhibition of binding of the three ligands to Nogo receptor-1 are summarized in Table 6.
(§3) The percent displacement is shown at 30 nM antibody and the EC50 for certain mAbs determined from curve-fit analysis as described. “-” indicates no detectable activity and “ND” indicates not determined.
(§4) We also performed ELISA binding assays using the Fab-phage 141)5.

[2] = target: T2, mouse NgR3 (Mus musculus, UniProt Q8K0S5); assay: Antibody binding specificity: mouse Nogo receptor-3
T2 sequence (Q8K0S5 25-424): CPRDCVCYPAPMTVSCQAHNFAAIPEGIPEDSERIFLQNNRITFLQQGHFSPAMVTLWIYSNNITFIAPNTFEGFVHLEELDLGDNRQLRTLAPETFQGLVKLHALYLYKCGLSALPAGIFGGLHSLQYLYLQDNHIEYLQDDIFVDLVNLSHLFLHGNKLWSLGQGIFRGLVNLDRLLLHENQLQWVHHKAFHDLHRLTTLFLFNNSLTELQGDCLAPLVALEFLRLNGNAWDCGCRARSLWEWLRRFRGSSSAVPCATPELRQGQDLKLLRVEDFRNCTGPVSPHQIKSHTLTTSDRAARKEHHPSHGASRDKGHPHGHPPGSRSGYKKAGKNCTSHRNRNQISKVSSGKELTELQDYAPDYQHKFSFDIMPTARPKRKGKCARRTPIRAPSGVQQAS

[3] = target: T3, OM-gp + sNogoR344-Fc (Rattus norvegicus, UniProt Q99M75, A303T/C287S/C43R/E284G/T53A); assay: ELISA: inhibition of OM-gp binding to sNogoR344-Fc
T3 construct: amino acid residues 26-344 of rat Nogo receptor-1; made in house; CHO (DG44) is described only for sNogoR310-Fc
T3 sequence (Q99M75 26-344 C43R/T53A/E284G/C287S/A303T): T1 sequence (Q99M75 26-344 C43R/T53A/E284G/C287S/A303T)
Method: as §1, §2, §3, §4

[4] = target: T4, MAG + sNogoR344-Fc (Rattus norvegicus, UniProt Q99M75, A303T/C287S/C43R/E284G/T53A); assay: ELISA: inhibition of MAG binding to sNogoR344-Fc
T4 construct: amino acid residues 26-344 of rat Nogo receptor-1; made in house; CHO (DG44) is described only for sNogoR310-Fc
T4 sequence (Q99M75 26-344 C43R/T53A/E284G/C287S/A303T): T1 sequence (Q99M75 26-344 C43R/T53A/E284G/C287S/A303T)
Method: as §1, §2, §3, §4

[5] = target: T5, mouse NgR1 (Mus musculus, UniProt Q99PI8); assay: Antibody binding specificity: mouse Nogo receptor-1
T5 sequence (Q99PI8 27-447): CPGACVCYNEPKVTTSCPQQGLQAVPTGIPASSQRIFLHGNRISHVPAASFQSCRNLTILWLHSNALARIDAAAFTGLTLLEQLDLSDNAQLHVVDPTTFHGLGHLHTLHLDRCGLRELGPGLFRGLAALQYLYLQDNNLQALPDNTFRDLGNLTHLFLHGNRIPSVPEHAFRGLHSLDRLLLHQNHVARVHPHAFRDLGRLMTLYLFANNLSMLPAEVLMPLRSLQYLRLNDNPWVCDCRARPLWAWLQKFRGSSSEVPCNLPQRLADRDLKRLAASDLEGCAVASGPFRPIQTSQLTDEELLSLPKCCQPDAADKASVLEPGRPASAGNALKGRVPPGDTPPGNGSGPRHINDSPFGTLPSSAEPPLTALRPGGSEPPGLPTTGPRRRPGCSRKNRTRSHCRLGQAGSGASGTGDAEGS

B1: 7E11: murine monoclonal anti-Nogo receptor-1 antibody, immunogen rat Nogo receptor-1 residues 110-125, IgG1 kappa, ATCC PTA-4587 (antibody, V domains shown)
VH: VQLQESGAELVMPGASVKMSCKASGYTFTDYWMHWVKQRPGQGLEWIGAIDPSDSYSSYNQNFKGKATLTVDGSSSTAYMQLSSLTSEDSAVYYCARRITEAGAWFAYWGQGTTVT
VL: MKLPVRLLVLMFWIPASSSDVVMTQTPLSLPVSLGDQASISCRSSQSLVHSNGNTYLHWYLQKPGQSPKLLIYKVSNRFSGVPDRFSGSGSGTDFTLKISRVDAEDLGVYFCSQSTHVPFTFGGGTKLEIKRADAAPTVSISHH
modifications: 7E11 heavy chain; 7E11 light chain
notes: murine monoclonal anti-Nogo receptor-1 antibody, immunogen rat Nogo receptor-1 residues 110-125, IgG1 kappa, ATCC PTA-4587
- inhibition of binding of Nogo66 to sNogoR344-Fc [1]: inhibited
- EC50 ([1]; curve-fit analysis): 1700 nM
- binding to mouse Nogo receptor-3 [2]: not
- inhibition of binding of OM-gp to sNogoR344-Fc [3]: inhibited
- EC50 ([3]; curve-fit analysis): 150 nM
- inhibition of binding of MAG to sNogoR344-Fc [4]: inhibited
- MAG + sNogoR344-Fc: percent displacement ([4]; 30 nM antibody): 30 nM (60%)
- EC50 ([4]; curve-fit analysis): 500 nM
- binding to mouse Nogo receptor-1 [5]: not and poorly

From patent publication US9228015B2, “Nogo receptor antagonists and methods of increasing neurite outgrowth” (Biogen Idec MA Inc., priority 2006, dated 2016)
